Experimental data: patent US20240002505A1 (NANJING IASO BIOTECHNOLOGY, published 2024)

T1: human CD5 on the cell surface (human, UniProt P06127 25-495)
T1 construct: whole, on cells; One molecule for CD5 on all cell lines; also called natural CD5 on the cell membrane; CD5 antigen on Jurkat, CCRF-CEM, MOLT4 cells
T1 sequence (looked up): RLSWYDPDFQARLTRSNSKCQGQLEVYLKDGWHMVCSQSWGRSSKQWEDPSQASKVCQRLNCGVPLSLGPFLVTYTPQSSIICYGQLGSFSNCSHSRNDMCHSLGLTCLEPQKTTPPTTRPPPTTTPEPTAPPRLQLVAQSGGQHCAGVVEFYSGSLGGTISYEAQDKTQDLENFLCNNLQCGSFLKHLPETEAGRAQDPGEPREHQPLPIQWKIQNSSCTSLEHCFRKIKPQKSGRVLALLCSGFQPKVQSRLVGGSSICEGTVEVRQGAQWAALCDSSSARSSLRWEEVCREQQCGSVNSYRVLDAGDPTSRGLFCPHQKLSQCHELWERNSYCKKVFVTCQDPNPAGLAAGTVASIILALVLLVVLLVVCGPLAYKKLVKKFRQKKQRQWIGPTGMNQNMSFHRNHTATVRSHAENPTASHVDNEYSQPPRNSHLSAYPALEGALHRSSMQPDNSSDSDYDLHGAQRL

T2: Recombinant biotinylated Human CD19 Protein-Fc (Kactus, CD2-HE121) (human, UniProt P15391 20-291, biotinylated)
T2 construct: Control antigen; also called CD19-Fc-Bio; Kactus-CD19-FC-Bio; not shown: Fc tag
T2 sequence (looked up): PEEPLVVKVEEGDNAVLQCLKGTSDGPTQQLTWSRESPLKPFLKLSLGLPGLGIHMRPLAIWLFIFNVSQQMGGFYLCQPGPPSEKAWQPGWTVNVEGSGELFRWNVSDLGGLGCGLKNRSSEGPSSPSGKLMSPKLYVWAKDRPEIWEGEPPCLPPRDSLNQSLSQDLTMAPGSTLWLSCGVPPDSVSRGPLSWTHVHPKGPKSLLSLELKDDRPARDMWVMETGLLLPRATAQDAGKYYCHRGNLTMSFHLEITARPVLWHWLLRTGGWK

T3: Biotinylated Recombinant human BAFFR Protein (Kactus, BAF-HM40RB) (human, UniProt Q96RJ3 7-71, limits assumed, biotinylated)
T3 construct: Non-related control antigen; also called Kactus-BAFFR-his-Bio; not shown: his tag
T3 sequence (looked up): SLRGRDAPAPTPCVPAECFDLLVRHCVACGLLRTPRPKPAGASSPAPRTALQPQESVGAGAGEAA

T4: CD5 antigen (Octet affinity determination, Example 8) (UniProt P06127 25-372, limits assumed)
T4 sequence (looked up): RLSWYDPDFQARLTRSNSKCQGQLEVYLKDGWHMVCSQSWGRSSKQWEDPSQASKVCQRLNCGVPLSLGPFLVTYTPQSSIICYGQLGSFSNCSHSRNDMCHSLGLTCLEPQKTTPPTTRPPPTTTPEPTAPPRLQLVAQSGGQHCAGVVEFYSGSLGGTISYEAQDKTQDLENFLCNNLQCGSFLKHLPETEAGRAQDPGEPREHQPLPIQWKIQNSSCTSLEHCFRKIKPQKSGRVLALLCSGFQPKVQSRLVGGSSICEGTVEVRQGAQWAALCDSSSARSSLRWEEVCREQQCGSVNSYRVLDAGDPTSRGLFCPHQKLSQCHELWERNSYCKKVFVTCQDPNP


Key:
[1] = biological target: T1, human CD5 on the cell surface; assay: phage FACS on Jurkat cells (CD5 positive), anti-M13 + FITC anti-mouse IgG, median of FITC-A
[2] = biological target: T2, Recombinant biotinylated Human CD19 …; assay: phage ELISA
[3] = biological target: T3, Biotinylated Recombinant human BAFFR …; assay: phage ELISA
[4] = biological target: T5, Streptavidin (Pierce, 21125) (UniProt P22629 37-163, limits assumed); assay: phage ELISA
T5 construct: Non-related control antigen; also called SA
T5 sequence (P22629 37-163 limits assumed): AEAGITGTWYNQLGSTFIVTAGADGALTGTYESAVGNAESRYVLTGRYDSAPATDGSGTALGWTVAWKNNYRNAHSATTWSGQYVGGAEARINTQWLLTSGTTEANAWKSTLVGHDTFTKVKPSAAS

[5] = biological target: T1, human CD5 on the cell surface; assay: phage FACS on CCRF-CEM cells (CD5 positive), anti-M13 + FITC anti-mouse IgG, median of FITC-A
[6] = biological target: T4, CD5 antigen (Octet affinity …); assay: BLI (Octet), IgG loaded on the biosensor, CD5 antigen 400 to 12.5 nM, 1:1 model

Binder	Median (B1-A) [1]	binding result [2]	binding result [3]	binding result [4]	Median (B1-A) [5]	Kd [6] [nM]	koff [6] [s⁻¹]	kon [6] [M⁻¹ s⁻¹]
phage monoclone #6 (scFv, also called scFv6) scFv: NFMLTQPHSVSESPGKTVTISCTGNSGSIARNYVQWYQQRPGSAPTMLIYEDNRRPSGVPDRFSGSIDSSSNSASLTISGLKTEDEADYYCQSYDDNTSWVFGGGTKLTVLGSRGGGGSGGGGSGGGGSLEMAEVQLVQSGAEVKKPGSSVKVSCKASGGTFSSNAITWVRQAPGQGLEWMGGIIPMFGTTDYAQKFQGRVTMTADESTSTAYMELRSLRSEDTAVYYCARDGGGRHPYYYYGMDVWGQGTTVTVSS	71.8	no binding	no binding	no binding	1.71	–	–	–
phage monoclone #7 (scFv, also called scFv7) scFv: QSVVTQPPSVSAAPGQKATISCSGSSSNIGNNDVSWYQQLPGTAPKLLIQDNDKRPSGIPDRFSGSKSGTSATLGITGLQTGDEADYYCAVWDSSLSAAVFGPGTKVTVLGSRGGGGSGGGGSGGGGSLEMAEVQLVQSGAEVKKPGESLKISCKGSGYSFTSYWIGWVRQMPGKGLEWMGIIYPDDSDTTYSPSFQGQVTMSVDKSISTAYLQWNSLQASDTAMYYCARMSLTSYLATDGWGQGTLVTVSS	28.3	no binding	no binding	no binding	12.4	–	–	–
phage monoclone #9 (scFv, also called scFv9) scFv: QPVLTQPPSVSGSPGQSVTISCTGTSDDIGNYKRVSWYQQPPGTAPKLMIYEVTNRPPGVPNRFSGSKSGNTASLTISGLQAEDEADYYCSSYASGDTYVFGTGTKVTVLGSRGGGGSGGGGSGGGGSLEQVQLVQSGAEVEKPGASVKISCKASTYTFTNYYIHWVRQAPGQGLEWMGMINPSGDTTSYAQKFQGRVTMTRDTSTSTVYMELSSLRSEDTAVYYCARLSWYWGGSFDDWGQGTLVTVSS	12.8	no binding	no binding	no binding	3.37	–	–	–
phage monoclone #10 (scFv, also called scFv10) scFv: QSVVTQPPSVSGAPGQRVTISCTGSSSNIGAGYDVHWYQQLPGTAPKLLIYGNINRPSGVPDRFSGSKSGTSASLAITGLQAEDEADYYCGTWDNSLSAHYVFGTGTKVTVLGSRGGGGSGGGGSGGGGSLEEVQLLESGGGLVKPGGSLRLSCAASGFTFNNYTMNWVRQAPGKGLEWVSSISSSSSYIYYADSVKGRFTISRDNAKNSLFLQMNSLRGEDTAVYYCARYFSGSAGDYWGQGTLVTVSS	31.6	no binding	no binding	no binding	17.1	–	–	–
H65 anti-CD5 IgG (antibody, V domains shown) VH: QIQLVQSGPELKKPGETVKISCKASGYTFTNYGMNWVKQAPGKGLRWMGWINTHTGEPTYADDFKGRFAFSLETSASTAYLQINNLKNEDTATYFCTRRGYDWYFDVWGAGTTVTVSS VL: DIKMTQSPSSMYASLGERVTITCKASQDINSYLSWFHHKPGKSPKTLIYRANRLVDGVPSRFSGSGSGQDYSLTISSLDYEDMGIYYCQQYDESPWTFGGGTKLEIK	–	–	–	–	–	2.25	0.000813	361000
Clone 35 anti-CD5 IgG (antibody, V domains shown, The VH entry as printed begins with MA carried over from the scFv) VH: QVQLVESGGGLVQPGGSLRLSCAASGFTFSSYAMSWVRQTPGKGLEWVSTITDSGDITYYTASVQGRFTISRDNSKNTLYLQMNSLRAEDTAVYYCARMSSHWYFSADYWGQGTLVTVSS VL: QSVLTQPPSVSAAPGQKVTISCSGSSSNIGNNYVSWYQQLPGTAPKLLIYDNNKRPSGIPDRFSGSKSGTSATLGITGLQTGDEADYYCGTWDSSLSAVVFGGGTKLTVLG	–	–	–	–	–	13.6	0.000382	28100
Clone 10 anti-CD5 IgG (antibody, V domains shown) VH: EVQLLESGGGLVKPGGSLRLSCAASGFTFNNYTMNWVRQAPGKGLEWVSSISSSSSYIYYADSVKGRFTISRDNAKNSLFLQMNSLRGEDTAVYYCARYFSGSAGDYWGQGTLVTVSS VL: QSVVTQPPSVSGAPGQRVTISCTGSSSNIGAGYDVHWYQQLPGTAPKLLIYGNINRPSGVPDRFSGSKSGTSASLAITGLQAEDEADYYCGTWDNSLSAHYVFGTGTKVTVLG	–	–	–	–	–	4.49	0.00143	318000
Clone 32 anti-CD5 IgG (antibody, V domains shown) VH: QVQLVESGGGLVKPGGSLRLSCAASGFTFSSYSMNWVRQAPGKGLEWVSSISSSSSYIYYADSVKGRFTISRDNAKNSLYLQMNSLRAEDTAVYYCARGNPWYGVDYWGQGTLVTVSS VL: QSVLTQPPSVSAAPGQKVTISCSGSNSNIGNNYVSWYQQLPGTAPKRLIYDNNKRPSGIPDRFSGSKSGTSATLGITGLQTGDEADYYCGIWDSSLDAYVFGTGTKVTVLG	–	–	–	–	–	28.3	0.00217	76500
phage monoclone #32 (scFv, also called scFv32) scFv: QVQLVESGGGLVKPGGSLRLSCAASGFTFSSYSMNWVRQAPGKGLEWVSSISSSSSYIYYADSVKGRFTISRDNAKNSLYLQMNSLRAEDTAVYYCARGNPWYGVDYWGQGTLVTVSSTSGGGGSGGGGSGGGGSELQSVLTQPPSVSAAPGQKVTISCSGSNSNIGNNYVSWYQQLPGTAPKRLIYDNNKRPSGIPDRFSGSKSGTSATLGITGLQTGDEADYYCGIWDSSLDAYVFGTGTKVTVLG	–	no binding	no binding	no binding	–	–	–	–
phage monoclone #35 (scFv, also called scFv35) scFv: QSVLTQPPSVSAAPGQKVTISCSGSSSNIGNNYVSWYQQLPGTAPKLLIYDNNKRPSGIPDRFSGSKSGTSATLGITGLQTGDEADYYCGTWDSSLSAVVFGGGTKLTVLGSRGGGGSGGGGSGGGGSLEMAQVQLVESGGGLVQPGGSLRLSCAASGFTFSSYAMSWVRQTPGKGLEWVSTITDSGDITYYTASVQGRFTISRDNSKNTLYLQMNSLRAEDTAVYYCARMSSHWYFSADYWGQGTLVTVSS	–	no binding	no binding	no binding	–	–	–	–
